Laboratory results as given in US20110086041A1.

What was measured:
[1] = target: 92UG-gp140-Fd trimer (HIV-1 isolate 92UG037.8); assay: SPR, 92UGgp140-Fd immobilized, 2G12 Fab flowing, 1:1 Langmuir model
[2] = target: HXB2-gp41-inter-GCN4 (HIV-1 isolate HXB2) (UniProt P04578); assay: SPR, told of the gp41-inter proteins as a group
[3] = target: 92UG-gp41-inter-Fd (HIV-1 isolate 92UG037.8); assay: SPR, told of the gp41-inter proteins as a group
[4] = target: 92UG-gp41-inter-Fd (HIV-1 isolate 92UG037.8); assay: SPR, 92UGgp41-inter-Fd immobilized, 2F5 Fab flowing
[5] = target: 92UG-gp41-inter-Fd (HIV-1 isolate 92UG037.8); assay: SPR, 2F5 Fab immobilized, 92UGgp41-inter-Fd flowing, 1:1 Langmuir model
[6] = target: 92UG-gp41-inter-Fd (HIV-1 isolate 92UG037.8); assay: SPR, 2F5 Fab immobilized, 92UGgp41-inter-Fd flowing; dissociation phase virtually flat, actual off-rate probably slower
[7] = target: HXB2-gp41-inter-GCN4 (HIV-1 isolate HXB2) (UniProt P04578); assay: SPR, 2F5 Fab immobilized, HXB2gp41-inter-GCN4 flowing, 1:1 Langmuir model
[8] = target: short 2F5 epitope peptide; assay: SPR, 2F5 Fab immobilized, 2F5 epitope peptide flowing
[9] = target: short 2F5 epitope peptide; assay: SPR, 2F5 epitope peptide immobilized, 2F5 Fab flowing
[10] = target: 92UG-gp41-inter-Fd (HIV-1 isolate 92UG037.8); assay: SPR, told of the gp41-inter proteins as a group; Table 1 ties this value to 92UGgp41-inter-Fd
[11] = target: 92UG-gp41-post (HIV-1 isolate 92UG037.8); assay: SPR, 2F5 Fab immobilized, 92UGgp41-post flowing
[12] = target: HXB2-gp41-inter-GCN4 (HIV-1 isolate HXB2) (UniProt P04578); assay: SPR, 2F5 Fab immobilized, HXB2gp41-inter-GCN4 flowing; dissociation phase virtually flat, actual off-rate probably slower
T20 peptide = assay: SPR, 2F5 Fab immobilized, T20 flowing
[13] = target: monomeric 92UG-gp120 core protein (HIV-1 isolate 92UG037); assay: SPR, b12 IgG immobilized, 92UG gp120 flowing, single analyte concentration
[14] = target: monomeric 92UG-gp120 core protein (HIV-1 isolate 92UG037); assay: SPR; told with a reference to Rits-Volloch et al. 2006 and FIG. 6C
[15] = target: monomeric 92UG-gp120 core protein (HIV-1 isolate 92UG037); assay: SPR, b6 IgG immobilized, 92UG gp120 flowing, single analyte concentration
[16] = target: 92UG-gp41-inter-Fd (HIV-1 isolate 92UG037.8); assay: SPR, 92UGgp41-inter-Fd immobilized on CM-5, 4E10 scFv flowing at 50 nM, single concentration
[17] = target: HXB2-gp41-interf-GCN4 (HIV-1 isolate HXB2) (UniProt P04578); assay: SPR, His-4E10 scFv on Ni-NTA chip, HXB2gp41-interf-GCN4 flowing at 50 nM, single concentration
[18] = target: biotinylated 4E10 epitope peptide; assay: SPR, biotinylated 4E10 epitope peptide on SA chip, 4E10 scFv flowing

Substance: Fab fragment of broadly neutralizing antibody 2G12
- Kd [1]: 17.9 nM
- koff [1]: 0.000958 s⁻¹
- kon [1]: 53500 M⁻¹ s⁻¹

Substance: Fab fragment of mAb 2F5
- Kd [2]: < 10 nM
- Kd [3]: < 10 nM
- Kd [4]: 3.24 nM
- koff [4]: 0.000496 s⁻¹
- kon [4]: 153000 M⁻¹ s⁻¹
- Kd [5]: 1.38 nM
- kon [5]: 10000 M⁻¹ s⁻¹
- koff [6]: 1.39e-05 s⁻¹
- Kd [7]: 8.96 nM
- kon [7]: 6820 M⁻¹ s⁻¹
- Kd [8]: 3.83 nM
- koff [8]: 0.00329 s⁻¹
- kon [8]: 859000 M⁻¹ s⁻¹
- Kd [9]: 5.33 nM
- koff [9]: 0.0015 s⁻¹
- kon [9]: 282000 M⁻¹ s⁻¹
- koff [10]: < 1.4e-05 s⁻¹
- Kd [11]: 1410 nM
- koff [11]: 0.00243 s⁻¹
- kon [11]: 1660 M⁻¹ s⁻¹
- koff [12]: 6.11e-05 s⁻¹
- Kd (T20 peptide): 4.79 nM
- koff (T20 peptide): 0.00217 s⁻¹
- kon (T20 peptide): 454000 M⁻¹ s⁻¹

Substance: mAb b12 whole IgG (antibody)
- Kd [13]: 993 nM
- koff [13]: 0.0149 s⁻¹
- kon [13]: 15000 M⁻¹ s⁻¹
- Kd [14]: 1400 nM

Substance: mAb b6 whole IgG (antibody)
- Kd [15]: 2.69 nM
- koff [15]: 0.000151 s⁻¹
- kon [15]: 56200 M⁻¹ s⁻¹

Substance: 4E10 single-chain Fv fragment (scFv)
- Kd [16]: 1.07 nM
- koff [16]: 0.000171 s⁻¹
- kon [16]: 160000 M⁻¹ s⁻¹
- Kd [17]: 2.98 nM
- koff [17]: 0.000443 s⁻¹
- kon [17]: 149000 M⁻¹ s⁻¹
- Kd [18]: 18.6 nM
- koff [18]: 0.000685 s⁻¹
- kon [18]: 36900 M⁻¹ s⁻¹
